Assay [1] deals with T1, extracellular domain of recombinant human CD19 receptor (human, UniProt P15391 20-291).
T1 construct: extracellular domain; also called recombinant human CD19 ECD
T1 sequence (looked up): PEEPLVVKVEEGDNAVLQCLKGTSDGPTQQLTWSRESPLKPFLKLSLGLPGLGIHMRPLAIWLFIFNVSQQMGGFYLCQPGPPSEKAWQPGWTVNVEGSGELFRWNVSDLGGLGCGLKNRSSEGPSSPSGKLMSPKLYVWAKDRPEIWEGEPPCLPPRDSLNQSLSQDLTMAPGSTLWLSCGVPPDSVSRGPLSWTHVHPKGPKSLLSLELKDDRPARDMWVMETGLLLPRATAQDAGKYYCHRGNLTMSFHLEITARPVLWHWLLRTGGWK
Kind of assay: SPR (BIAcore), half-life of the complex.

The target of assay [2] is T2, cynomolgus monkey CD19 extracellular domain (ECD) fused to the human PSCA GPI anchor sequence, on transfected … (cynomolgus monkey; human).
T2 construct: Presented on the surface of transiently transfected HEK293 cells; its processing in the cell is not described; also called cynomolgus CD19-ECD; cyCD19 ECD
T2 chain: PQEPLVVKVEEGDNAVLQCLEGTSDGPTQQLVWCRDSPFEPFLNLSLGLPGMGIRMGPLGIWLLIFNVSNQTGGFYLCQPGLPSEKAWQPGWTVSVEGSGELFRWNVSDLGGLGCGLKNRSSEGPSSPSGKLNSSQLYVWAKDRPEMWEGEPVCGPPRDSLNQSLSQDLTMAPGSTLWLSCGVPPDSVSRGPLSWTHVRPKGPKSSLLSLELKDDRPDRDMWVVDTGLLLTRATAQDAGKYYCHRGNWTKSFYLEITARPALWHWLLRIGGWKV
Kind of assay: flow cytometry on HEK293 cells presenting cynomolgus CD19 ECD by GPI anchor. On the procedure:
HEK293 cells were transfected with 1 μg of plasmid DNA per 1.5×10⁶ cells using LipofectAmine 2000 and incubated thereafter for 48 hours at 37° C. […] GWKV; SEQ ID NO: 31) extracellular domain (ECD) fused to the human PSCA GPI anchor sequence ([…] WGPGQL; SEQ ID NO: 32) for extracellular presentation. […] The starting concentration of the antibodies was set to 60 μg/mL (2× final concentration) and then diluted in a 1:3 (v/v) titration series. The primary antibody was incubated on the cells for one hour at room temperature, followed by two wash steps. For secondary detection, anti-huIgG (H+L) antibody conjugated to Alexa488 in a concentration of 30 μg/mL was used.

The results in this text go back to patent publication US20180282409A1 (Hoffmann-La Roche, published 2018).

B1: humanized anti-human CD19 antibody var.5:S27eP (antibody, V domains shown)
VH: QVQLVQSGAEVKKPGASVKVSCKASGYTFTDYIMHWVRQAPGQGLEWMGYINPYNDGSKYTEKFQGRVTMTSDTSISTAYMELSRLRSDDTAVYYCARGTYYYGSALFDYWGQGTTVTVSS
VL: DIVMTQTPLSLSVTPGQPASISCKSSQSLENPNGNTYLNWYLQKPGQSPQLLIYRVSKRFSGVPDRFSGSGSGTDFTLKISRVEAEDVGVYYCLQLTHVPYTFGQGTKLEIK
notes: also called variant 5 (S27eP); variant 5
Regarding B1, in assay [1], the t1/2 was found to be 43.6 min.

B2: humanized anti-human CD19 antibody var.9:S27eP/N28S (antibody, V domains shown)
VH: QVQLVQSGAEVKKPGASVKVSCKASGYTFTDYIMHWVRQAPGQGLEWMGYINPYNDGSKYTEKFQGRVTMTSDTSISTAYMELSRLRSDDTAVYYCARGTYYYGSALFDYWGQGTTVTVSS
VL: DIVMTQTPLSLSVTPGQPASISCKSSQSLENPSGNTYLNWYLQKPGQSPQLLIYRVSKRFSGVPDRFSGSGSGTDFTLKISRVEAEDVGVYYCLQLTHVPYTFGQGTKLEIK
notes: also called variant 9 (S27eP/N28S); variant 9
For B2, in assay [1], the t1/2 was determined as 4 min.

B3: wild-type humanized anti-human CD19 antibody (var.0: wt) (antibody, V domains shown)
VH: EVQLQQSGPELVKPGASVKMACKASGYTFTDYIMHWVKQKTGQGLEWIGYINPYNDGSKYTEKFNGKATLTSDKSSITAYMELSSLTSEDSAVYYCARGTYYYGSALFDYWGQGTTLTVSS
VL: DAVMTQTPLSLPVSLGDQASISCRSSQSLENSNGNTYLNWYLQKPGQSPQLLIYRVSKRFSGVLDRFSGSGSGTDFTLKISRVEAEDLGVYFCLQLTHVPYTFGGGTKLEIK
notes: it was detected with anti-human IgG and captured with anti-human Fab; also called variant 0: wt; humanized wild-type antibody
On to B3, for which it took 0.313 µg/mL to reach a half-maximal effect in assay [2] (EC50).
